Patent US5985836A, “Alpha-1 proteinase inhibitor binding peptides” (Bayer Corporation, priority 1998, dated 1999)
Ends that are not written are not given here.

Target: T1, A1PI (Homo sapiens, UniProt P01009)
T1 construct: Human plasma is currently the only approved source of therapeutic AlPI
Test: A1PI binding on peptide-resin column, injection of 1 mg A1PI in equilibration buffer
Conditions: for % of Total A1PI Eluted by Fraction (Based on Absorbance at 280 nm), 1M NaCl / % of Total A1PI Eluted by Fraction (Based on Absorbance at 280 nm), 2% Acetic Acid / % of Total A1PI Eluted by Fraction (Based on Absorbance at 280 nm), Flowthrough: 1 mg A1PI; for Percent AlPI Eluted by Fraction, 1M NaCl / Percent AlPI Eluted by Fraction, 2% Acetic Acid / Percent AlPI Eluted by Fraction, Flowthrough: sequence order, 1 mg AlPI
Method: Confirmatory binding assays were performed in a column chromatographic format on a microbore HPLC using individual peptide sequences synthesized directly onto the Toyopearl 650 M Chelate resin which had been modified with Totda followed by an alanine residue (A-Totda-Toyopearl), at a final substitution density of 0.1 mmole/g resin. The resin was packed into 0.4×5 cm columns (Thomson, Springfield, Va.) and tested on the Michrom HPLC system (Michrom BioResources, Auburn, Calif.). The elution program for all trials utilized the following method. The column was pre-equilibrated with equilibration buffer (as above). 1 ml of sample was injected and allowed sufficient time to flowthrough the column using equilibration buffer. The column was then washed with step elutions of 1M NaCl and 3M NaCl in equilibration buffer. The column was exposed to equilibration buffer with 0.1M NaCl. Any remaining protein was eluted with elution buffer (2% by volume glacial acetic acid in water).
A Gilson FC204 fraction collector at the HPLC outlet collected individual eluates for further analysis. Fractions collected from the 2% acetic acid eluates were neutralized with 2M Tris, pH 10.5 to bring the pH to neutrality. The protein samples were reconstituted in equilibration buffer unless otherwise stated. The samples were analyzed by the integration of the absorbance at 280 nm or by immunonephelometry. The specific method of determination is presented for each figure.
Tables 2 and 3 present the elution profiles for 19 sequences based on the injection of 1 mg AlPI in equilibration buffer at 4° C. and 20° C., respectively. The columns were run at a constant flow rate of865 μl/min (413 cm/hr) or 523 μl/min (250 cm/hr). No dependence of the elution profile with flow rate was found. The Percent AlPI Eluted by Fraction represents the amount eluted in the flowthrough, 1M NaCl wash, and 2% acetic acid fractions relative to the total AlPI eluted. The percentages are based on either the integration of the peak areas at […]

[1] = VIWLVR N-terminal point mutations, 4° C.
[2] = 1 mg A1PI in equilibration buffer, 4° C.
[3] = 1 mg A1PI in equilibration buffer, 20° C.

T1 sequence (P01009 25-418): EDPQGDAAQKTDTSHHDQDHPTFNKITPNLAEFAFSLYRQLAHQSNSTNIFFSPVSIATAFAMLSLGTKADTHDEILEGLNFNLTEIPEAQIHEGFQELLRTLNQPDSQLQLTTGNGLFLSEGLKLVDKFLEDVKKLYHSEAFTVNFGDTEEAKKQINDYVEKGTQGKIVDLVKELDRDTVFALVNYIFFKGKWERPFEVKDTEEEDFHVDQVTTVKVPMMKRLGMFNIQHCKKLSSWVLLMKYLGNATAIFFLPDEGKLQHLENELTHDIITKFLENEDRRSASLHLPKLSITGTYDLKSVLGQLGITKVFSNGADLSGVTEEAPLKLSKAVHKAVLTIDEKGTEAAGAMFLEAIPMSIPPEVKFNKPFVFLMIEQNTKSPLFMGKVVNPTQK

What does the source list for “HNWLVR: point mutation of VIWLVR on Ala-Totda-Toyopearl (not fully specified (C-terminus))”?
% of Total A1PI Eluted by Fraction (Based on Absorbance at 280 nm), 1M NaCl [1]: 92%; % of Total A1PI Eluted by Fraction (Based on Absorbance at 280 nm), 2% Acetic Acid [1]: 8%; % of Total A1PI Eluted by Fraction (Based on Absorbance at 280 nm), Flowthrough [1]: 0%

Which “% of Total A1PI Eluted by Fraction (Based on Absorbance at 280 nm), 1M NaCl” value (shortened to “% of Total A1PI Eluted by Fraction … 1M NaCl”) [1] does the source give for “NDWLVR: point mutation of VIWLVR on Ala-Totda-Toyopearl (not fully specified (C-terminus))” here?
The value was 0%.

And the “% of Total A1PI Eluted by Fraction (Based on Absorbance at 280 nm), 2% Acetic Acid” value [1]?
Its value is 0%.

And the “% of Total A1PI Eluted by Fraction (Based on Absorbance at 280 nm), Flowthrough” value (“% of Total A1PI Eluted by Fraction … Flowthrough” below) [1]?
Its value is 100%.

Which “% of Total A1PI Eluted by Fraction … 1M NaCl” value [1] does the source give for “DDWLVR: point mutation of VIWLVR on Ala-Totda-Toyopearl (not fully specified (C-terminus))” here?
The value was 0%.

And the “% of Total A1PI Eluted by Fraction (Based on Absorbance at 280 nm), 2% Acetic Acid” value [1]?
Its value is 1%.

And the “% of Total A1PI Eluted by Fraction … Flowthrough” value [1]?
The value was 99%.

For WSSKRY, which “Percent A1PI Eluted by Fraction Based on Absorbance at 280 nm, 1M NaCl” value [2] is on record?
Its value is 91%.

And the “Percent A1PI Eluted by Fraction Based on Absorbance at 280 nm, 2% Acetic Acid” value [2]?
Its value is 9%.

What about the “Percent A1PI Eluted by Fraction Based on Absorbance at 280 nm, Flowthrough” value [2] of the same substance?
Its value is 0%.

What about the “Percent A1PI Eluted by Fraction, 1M NaCl” value [3] of the same substance?
Its value is 97%.

What about the “Percent A1PI Eluted by Fraction, 2% Acetic Acid” value [3] of the same substance?
Its value is 3%.

What about the “Percent A1PI Eluted by Fraction, Flowthrough” value [3] of the same substance?
The value was 0%.

“Ac-RVLFIV: N-terminal acetylated Ac-RVLFIV (listed under SEQ ID No:61)” was tested. Which “Percent AlPI Eluted by Fraction, 1M NaCl” value (4° C.) did it give?
The value was 11%.

What about the “Percent AlPI Eluted by Fraction, 2% Acetic Acid” value (4° C.) of the same substance?
The value was 13%.

What about the “Percent AlPI Eluted by Fraction, Flowthrough” value (4° C.) of the same substance?
Its value is 76%.

And the “Percent AlPI Eluted by Fraction, 1M NaCl” value (20° C.)?
Its value is 31%.

What about the “Percent AlPI Eluted by Fraction, 2% Acetic Acid” value (20° C.) of the same substance?
The value was 50%.

And the “Percent AlPI Eluted by Fraction, Flowthrough” value (20° C.)?
The value was 19%.

What does the source list for “D I F L V R: point mutation of VIFLVR, position 1 (DIFLVR)”?
% of Total A1PI Eluted by Fraction (Based on Absorbance at 280 nm), 1M NaCl (VIFLVR point mutations, 4° C.): 6%; % of Total A1PI Eluted by Fraction (Based on Absorbance at 280 nm), 2% Acetic Acid (VIFLVR point mutations, 4° C.): 10%; % of Total A1PI Eluted by Fraction (Based on Absorbance at 280 nm), Flowthrough (VIFLVR point mutations, 4° C.): 84%; % of Total A1PI Eluted by Fraction (Based on Absorbance at 280 nm), 1M NaCl (VIFLVR point mutations, 20° C.): 9%; % of Total A1PI Eluted by Fraction (Based on Absorbance at 280 nm), 2% Acetic Acid (VIFLVR point mutations, 20° C.): 21%; % of Total A1PI Eluted by Fraction (Based on Absorbance at 280 nm), Flowthrough (VIFLVR point mutations, 20° C.): 70%

What does the source list for “DNWLVR: point mutation of VIWLVR on Ala-Totda-Toyopearl (not fully specified (C-terminus))”?
% of Total A1PI Eluted by Fraction (Based on Absorbance at 280 nm), 1M NaCl [1]: 9%; % of Total A1PI Eluted by Fraction (Based on Absorbance at 280 nm), 2% Acetic Acid [1]: 1%; % of Total A1PI Eluted by Fraction (Based on Absorbance at 280 nm), Flowthrough [1]: 90%

For “V I F A V R: point mutation of VIFLVR, position 4 (VIFAVR)”, which “% of Total A1PI Eluted by Fraction … 1M NaCl” value (VIFLVR point mutations, 4° C.) is on record?
Its value is 46%.

And the “% of Total A1PI Eluted by Fraction (Based on Absorbance at 280 nm), 2% Acetic Acid” value (VIFLVR point mutations, 4° C.)?
The value was 54%.

And the “% of Total A1PI Eluted by Fraction … Flowthrough” value (VIFLVR point mutations, 4° C.)?
The value was 0%.

What about the “% of Total A1PI Eluted by Fraction … 1M NaCl” value (VIFLVR point mutations, 20° C.) of the same substance?
The value was 11%.

And the “% of Total A1PI Eluted by Fraction (Based on Absorbance at 280 nm), 2% Acetic Acid” value (VIFLVR point mutations, 20° C.)?
The value was 89%.

What about the “% of Total A1PI Eluted by Fraction … Flowthrough” value (VIFLVR point mutations, 20° C.) of the same substance?
The value was 0%.
